Experimental data: the Immune Epitope Database (IEDB)

Assays:
Assay in all cases: IEDB peptide-MHC binding, purified MHC/competitive/radioactivity; filed as Kd, often an IC50 or EC50 that approximates it; ≥ and ≤ were set here for values at or beyond the usual limits of such assays
HLA-A*33:01 = molecular target: HLA-A*33:01
HLA-A*11:01 = molecular target: HLA-A*11:01
HLA-A*03:01 = molecular target: HLA-A*03:01
HLA-A*31:01 = molecular target: HLA-A*31:01
HLA-A*68:01 = molecular target: HLA-A*68:01
[1] = source organism: SARS coronavirus Tor2
[2] = source organism: Lymphocytic choriomeningitis virus (strain Armstrong)
[3] = source organism: Vaccinia virus WR
[4] = source organism: Dengue virus 3 Martinique/1243/1999
[5] = source organism: Dengue virus 2 Jamaica/1409/1983
[6] = source organism: Dengue virus 1 Brazil/97-11/1997
[7] = source organism: Mammarenavirus machupoense
[8] = source organism: Vaccinia virus Copenhagen
[9] = source organism: Dengue virus 4 Philippines/H241/1956

| Sequence | Kd (HLA-A*33:01; [3]) [nM] | Kd (HLA-A*11:01; [3]) [nM] | Kd (HLA-A*03:01; [3]) [nM] | Kd (HLA-A*31:01; [3]) [nM] | Kd (HLA-A*68:01; [3]) [nM] | other results |
| --- | --- | --- | --- | --- | --- | --- |
| DFYDFAVSK | – | – | – | – | – | Kd (HLA-A*33:01; [1]): 9.36 nM; Kd (HLA-A*11:01; [1]): 8940 nM; Kd (HLA-A*03:01; [1]): 4110 nM; Kd (HLA-A*31:01; [1]): 12400 nM; Kd (HLA-A*68:01; [1]): 56.9 nM |
| NSESLSLISH | – | – | – | – | – | Kd (HLA-A*33:01; [2]): ≥ 31800 nM; Kd (HLA-A*11:01; [2]): 8050 nM; Kd (HLA-A*03:01; [2]): ≥ 23400 nM; Kd (HLA-A*31:01; [2]): 16900 nM; Kd (HLA-A*68:01; [2]): ≥ 29300 nM |
| YVKNGTKGK | ≥ 65500 | 875 | 2080 | ≥ 72100 | 39.3 | – |
| TVYDDAARR | – | – | – | – | – | Kd (HLA-A*33:01; [1]): 4970 nM; Kd (HLA-A*11:01; [1]): 97.1 nM; Kd (HLA-A*03:01; [1]): 455 nM; Kd (HLA-A*31:01; [1]): 1160 nM; Kd (HLA-A*68:01; [1]): 2.54 nM |
| SFYYIWKSY | – | – | – | – | – | Kd (HLA-A*33:01; [1]): 779 nM; Kd (HLA-A*11:01; [1]): 6730 nM; Kd (HLA-A*03:01; [1]): 5150 nM; Kd (HLA-A*31:01; [1]): 68.1 nM; Kd (HLA-A*68:01; [1]): 447 nM |
| CVDIPGIPK | – | – | – | – | – | Kd (HLA-A*33:01; [1]): ≥ 37900 nM; Kd (HLA-A*11:01; [1]): 19.9 nM; Kd (HLA-A*03:01; [1]): 149 nM; Kd (HLA-A*31:01; [1]): ≥ 10000 nM; Kd (HLA-A*68:01; [1]): 102 nM |
| VSYEVFDDY | 19100 | 134 | ≥ 37100 | ≥ 77900 | 1570 | – |
| WLSSKGLACY | ≥ 58600 | ≥ 28900 | 418 | 19500 | ≥ 28300 | – |
| IFREIASSMK | 467 | 1570 | 198 | 425 | 3470 | – |
| LTMKAIEKDR | 6250 | 280 | 12100 | 595 | 65.5 | – |
| VFHTMWHVTR | – | – | – | – | – | Kd (HLA-A*33:01; [4]): 135 nM; Kd (HLA-A*31:01; [4]): 4.53 nM |
| TFHTMWHVTR | – | – | – | – | – | Kd (HLA-A*33:01; [5]): 7.95 nM; Kd (HLA-A*31:01; [5]): 19.1 nM |
| AVLMHKGKR | – | – | – | – | – | Kd (HLA-A*31:01; [5]): 64.7 nM |
| ATTVITPMMR | – | – | – | – | – | Kd (HLA-A*11:01; [6]): 141 nM; Kd (HLA-A*31:01; [6]): 125 nM; Kd (HLA-A*68:01; [6]): 368 nM |
| SVIRLLIWAY | 17600 | 17.3 | 1380 | 2240 | 776 | – |
| FTDISMSLYK | 4210 | 8.84 | 55.9 | 9320 | 24.9 | – |
| VTMMKYCSY | 2060 | 8.78 | 650 | 460 | 521 | – |
| AVHDFFKFR | – | – | – | – | – | Kd (HLA-A*33:01; [1]): 273 nM; Kd (HLA-A*11:01; [1]): 7.56 nM; Kd (HLA-A*03:01; [1]): 7140 nM; Kd (HLA-A*31:01; [1]): 4.9 nM; Kd (HLA-A*68:01; [1]): 11.3 nM |
| NATDFWRLY | 526 | 126 | 44.1 | 477 | 52.3 | – |
| EWMLIAAKMK | – | – | – | – | – | Kd (HLA-A*33:01; [7]): 49 nM; Kd (HLA-A*11:01; [7]): ≥ 24100 nM; Kd (HLA-A*03:01; [7]): 5950 nM; Kd (HLA-A*31:01; [7]): 1260 nM; Kd (HLA-A*68:01; [7]): 3530 nM |
| MLAHAEETRK | – | – | – | – | – | Kd (HLA-A*33:01; [1]): ≥ 70000 nM; Kd (HLA-A*11:01; [1]): 6390 nM; Kd (HLA-A*03:01; [1]): 496 nM; Kd (HLA-A*31:01; [1]): 9410 nM; Kd (HLA-A*68:01; [1]): 157 nM |

| Sequence | Kd (HLA-A*33:01; [3]) [nM] | Kd (HLA-A*11:01; [3]) [nM] | Kd (HLA-A*03:01; [3]) [nM] | Kd (HLA-A*31:01; [3]) [nM] | Kd (HLA-A*68:01; [3]) [nM] | other results |
| --- | --- | --- | --- | --- | --- | --- |
| SSLDQTHIK | – | – | – | – | – | Kd (HLA-A*33:01; [8]): 19800 nM; Kd (HLA-A*11:01; [8]): 31.8 nM; Kd (HLA-A*03:01; [8]): 961 nM; Kd (HLA-A*31:01; [8]): 26 nM; Kd (HLA-A*68:01; [8]): 1490 nM |
| RIQRRDDVDR | 17600 | ≥ 69800 | ≥ 70100 | 78.5 | ≥ 42500 | – |
| TFNSLNTDDY | ≥ 70000 | 10100 | 5440 | ≥ 34200 | 4080 | – |
| NVIEDITFLR | 12.5 | 230 | 6720 | 64.4 | 1.59 | – |
| MGYWIESQK | – | – | – | – | – | Kd (HLA-A*03:01; [4]): 12.8 nM; Kd (HLA-A*68:01; [4]): 67.2 nM |
| KSKNINIEVK | ≥ 70000 | 568 | 305 | 1070 | 13300 | – |
| IAVSTANIFR | – | – | – | – | – | Kd (HLA-A*33:01; [9]): 1050 nM; Kd (HLA-A*68:01; [9]): 9.46 nM |
| NFMVSVSDFR | 33.1 | 4030 | 9960 | 93.9 | 6.56 | – |
| KSSSIDVDKR | 8180 | 550 | 2630 | 84.4 | 17 | – |
| ATKIIALNK | – | – | – | – | – | Kd (HLA-A*33:01; [1]): ≥ 77700 nM; Kd (HLA-A*11:01; [1]): 334 nM; Kd (HLA-A*03:01; [1]): 1360 nM; Kd (HLA-A*31:01; [1]): 840 nM; Kd (HLA-A*68:01; [1]): 15900 nM |
| KIVDHIVMY | ≥ 24800 | 92.2 | 17.9 | 11800 | 7980 | – |
| IFAFIDFSK | – | – | – | – | – | Kd (HLA-A*33:01; [8]): 42.6 nM; Kd (HLA-A*11:01; [8]): 20.5 nM; Kd (HLA-A*03:01; [8]): 78.2 nM; Kd (HLA-A*31:01; [8]): 251 nM; Kd (HLA-A*68:01; [8]): 8.56 nM |
| IITPVVFYR | 6.62 | 0.322 | 59.2 | 1.08 | 0.0181 | – |
| GSTAEQLSK | ≥ 77700 | 14 | 307 | ≥ 77900 | ≥ 43000 | – |
| RFWDLVHRER | – | – | – | – | – | Kd (HLA-A*33:01; [6]): 19.7 nM; Kd (HLA-A*31:01; [6]): ≥ 49800 nM |
| GLLFRRLTSR | – | – | – | – | – | Kd (HLA-A*03:01; [6]): 170 nM; Kd (HLA-A*31:01; [6]): ≥ 53700 nM |
| ITVDDDGTMR | – | – | – | – | – | Kd (HLA-A*68:01; [4]): 77.3 nM |
| MWTLMYFHRR | – | – | – | – | – | Kd (HLA-A*33:01; [5]): 29.8 nM; Kd (HLA-A*31:01; [5]): 33.6 nM |
| AVILQNAWK | – | – | – | – | – | Kd (HLA-A*11:01; [5]): 128 nM |
| MLNILNGRKR | – | – | – | – | – | Kd (HLA-A*31:01; [9]): 17.3 nM |
| TLFGPEREK | – | – | – | – | – | Kd (HLA-A*03:01; [9]): 85.9 nM |
